The test system of the test is antibody to BTG coupled to Sepharose 4B. The experiment in a line: Radioimmunoassay for platelet β thromboglobulin (BTG), Sepharose 4B-coupled antibody separated by sucrose layering. Format: binding. The protocol: After primary incubation with ^125 I BTG, 1 ml aliquots of standard BTG of known concentrations in the range from 0.2 to 25.6 µg/ml are incubated in 75 × 17 mm sample tubes with an antibody to BTG coupled to Sepharose 4B. After incubation the Sepharose 4B and supernatant are separated by the method of the invention as follows.
1 ml of diluent is added to each sample tube followed by 6 ml of 10% w/v sucrose in water. The sucrose solution is added over a period of about 15 seconds through a stainless steel probe by means of a peristaltic pump. The outlet of the probe is positioned about 0.5 cm from the bottom of the sample tube, and the sucrose solution forms a discrete layer beneath the incubate. In this way the sucrose addition is carried out in a substantially non-turbulent manner. The sample tubes are then left to stand for about 60 minutes during which time the Sepharose 4B together with bound BTG settles out of the incubate into the sucrose solution forming a deposit at the bottom of each tube.
Each sample tube, in turn, is then placed in an auto-γ counter (Wallac Instruments Ltd) modified as shown in FIG. 1 and counted for a period of 49.9 seconds (this being the period required to yield 10,000 counts from the total amount of ^125 I-BTG added to each tube). The sample tubes are then left to stand for a further 16 hours, and each sample tube is again counted. The results obtained are given in Table I, dividing the counts obtained by 100 giving the results in terms of the percentage of the total ^125 I-BTG which has been bound in each case.
With reference to FIG. 1 the γ-counter has a well type detector into which the sample tube 1 enters. The detector is modified by placing a 2.5 cm length of plastic tube 2 in the bottom of the well and adding an annular disc 3 of lead screening material beneath customary annular plastic disc spill shield 4. In such an arrangement the source which is to be counted, the bound ^125 I BTG linked to the deposit of Sepharose 4B 5 at the bottom of the tube 1, is well within the detector. The free ^125 I BTG present in the 2 ml layer of aqueous incubate 6 is separated from the detector by the intervening 6 ml layer 7 of 10% w/v sucrose solution, and also the detector is shielded to a large extent against stray radiation from the free fraction by the disc 3 of lead screening material. For all intents and purposes the detector "sees" only radiation from the bound and not from the free fraction.

The mark [1] stands for this setting: 0 μg standard BTG, A after 1 hr. standing.
Where [2] appears, read: 0 μg standard BTG, B after 17 hrs. standing.
Setting [3] is: Controls without antibody, A after 1 hr. standing.
[4] abbreviates: Controls without antibody, B after 17 hrs. standing.
[5] abbreviates: 0.2 μg standard BTG, A after 1 hr. standing.
Where [6] appears, read: 0.2 μg standard BTG, B after 17 hrs. standing.
The mark [7] stands for this setting: 0.4 μg standard BTG, A after 1 hr. standing.
Setting [8] is: 0.4 μg standard BTG, B after 17 hrs. standing.
Setting [9] is: 0.8 μg standard BTG, A after 1 hr. standing.
[10] abbreviates: 0.8 μg standard BTG, B after 17 hrs. standing.
Where [11] appears, read: 1.6 μg standard BTG, A after 1 hr. standing.
Where [12] appears, read: 1.6 μg standard BTG, B after 17 hrs. standing.
The mark [13] stands for this setting: 3.2 μg standard BTG, A after 1 hr. standing.
[14] abbreviates: 3.2 μg standard BTG, B after 17 hrs. standing.
[15] abbreviates: 6.4 μg standard BTG, A after 1 hr. standing.
Setting [16] is: 6.4 μg standard BTG, B after 17 hrs. standing.
Setting [17] is: 12.8 μg standard BTG, A after 1 hr. standing.
[18] abbreviates: 12.8 μg standard BTG, B after 17 hrs. standing.
Setting [19] is: 25.6 μg standard BTG, A after 1 hr. standing.
Where [20] appears, read: 25.6 μg standard BTG, B after 17 hrs. standing.

Several values for one entry are separate records, joined by “and”; a condition that tells them apart may be missing. Equal values may be shown once.

B1: ^125 I-BTG: radioiodinated BTG tracer of the radioimmunoassay (protein, UniProt P02775 48-128, looked up)
Beta-thromboglobulin: GKEESLDSDLYAELRCMCIKTTSGIHPKNIQSLEVIGKGTHCNQVEVIATLKDGRKICLDPDAPRIKKIVQKKLAGDESAD
modifications: Beta-thromboglobulin 125I label
notes: radioiodinated BTG tracer of the radioimmunoassay
With B1, the “% bound (of total ^125 I-BTG)” value under setting [1] came out at 45.7%, the “% bound (of total ^125 I-BTG)” value under setting [2] came out at 45.1%, the “% bound (of total ^125 I-BTG)” value under setting [3] is recorded as 1.5% and the “% bound (of total ^125 I-BTG)” value under setting [4] stood at 1.5%. Moreover, the “Counts (in 49.9 sec)” value runs as follows: under setting [1], 4617 counts and 4492 counts and 4581 counts and 4599 counts; under setting [2], 4584 counts and 4474 counts and 4503 counts and 4496 counts; under setting [3], 133 counts and 180 counts; under setting [4], 160 counts and 149 counts.

B2: platelet β thromboglobulin (protein, UniProt P02775 48-128, looked up)
Beta-thromboglobulin: B1 Beta-thromboglobulin
modifications: Beta-thromboglobulin
notes: standard BTG of known concentrations
With B2, the “% bound (of total ^125 I-BTG)” value came out at 32.3% under setting [5]; 31.3% under setting [6]; 27.2% under setting [7]; 27.3% under setting [8]; 22.0% under setting [9]; 20.9% under setting [10]. Moreover, the “% bound (of total ^125 I-BTG)” value under setting [11] came out at 15.1%; the “% bound (of total ^125 I-BTG)” value under setting [12] is 14.5%; the “% bound (of total ^125 I-BTG)” value under setting [13] was determined as 10.4%; the “% bound (of total ^125 I-BTG)” value under setting [14] is recorded as 9.9%; the “% bound (of total ^125 I-BTG)” value under setting [15] is listed as 7.1%; the “% bound (of total ^125 I-BTG)” value under setting [16] is given as 6.6%. The “% bound (of total ^125 I-BTG)” value was found to be 4.8% under setting [17], 4.5% under setting [18], 3.5% under setting [19] and 3.3% under setting [20]. The “Counts (in 49.9 sec)” value was 3061 counts and 3409 counts under setting [5]; 3110 counts and 3154 counts under setting [6]; 2657 counts and 2784 counts under setting [7]; 2059 counts and 2816 counts under setting [8]; 2117 counts and 2286 counts under setting [9]; 2059 counts and 2129 counts under setting [10]. Also, the “Counts (in 49.9 sec)” value by setting is: under setting [11], 1469 counts and 1552 counts; under setting [12], 1451 counts and 1447 counts; under setting [13], 1103 counts and 986 counts; under setting [14], 979 counts and 1001 counts; under setting [15], 706 counts and 721 counts; under setting [16], 650 counts and 665 counts. Besides, the “Counts (in 49.9 sec)” value under setting [17] is 465 counts and 495 counts; the “Counts (in 49.9 sec)” value under setting [18] was 440 counts and 458 counts; the “Counts (in 49.9 sec)” value under setting [19] was 346 counts and 357 counts; the “Counts (in 49.9 sec)” value under setting [20] was 337 counts and 321 counts.

Source of the values: patent US4125375A, “Separation of solid and liquid components of mixtures” (National Research Development Corporation, priority 1975, dated 1978).
